Patent publication US12692524B2, “Sialyltransferases and their use in producing sialylated oligosaccharides” (Chr. Hansen A/S, priority 2017, dated 2026)

Legend:
[1] = In vitro sialylation of LNT by protein extracts, LST-a/-b quantified by LC-MS/MS; type: biochemical
How it was run: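 E. coli BL21(DE3) crude extracts overexpressing sialyltransferases (IPTG 0.3 mM, 12–16 h at 30 °C) incubated 16 h with 5 mM LNT and 10 mM CMP-Neu5Ac in 50 mM Tris-HCl pH 7.5, 5 mM MgCl2. LST-a and LST-b measured by HILIC LC-MS/MS, MRM in ESI negative mode, against commercial standards.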

[2] = In vivo screening in E. coli #1363/#1730 with lactose as acceptor, sialyllactose identified by TLC; type: cell-based, Escherichia coli BL21(DE3); conditions: 1.5 mM lactose, 72 to 96 hours, qualitative via TLC
How it was run: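 E. coli BL21(DE3) #1363/#1730 expressing sialyltransferases were grown at 30 °C in mineral salts medium with 2% glucose and induced with 0.3 mM IPTG. After 1 h, 1.5 mM lactose was added, plus 1.5 mM sialic acid for #1730, and incubation ran 72–96 h. Cell lysates were analysed by silica TLC with thymol staining.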

[3] = In vitro kinetics (Km, Vmax), donor substrate CMP-Neu5Ac; type: biochemical; conditions: 30° C., pH7.5, protein extract
Description: (§1) To rank the best performing sialyltransferases, their Km values for donor and acceptor substrates were determined in vitro. Escherichia coli BL21(DE3) strain #287 was used for overproduction of the enzymes. Cells were incubated in 100 ml 2YT medium in shaking flasks supplemented with 100 μg m^−1 ampicillin at 30° C. until an OD600 of 0.3 was reached. Then, 0.3 mM IPTG was added and the incubation was continued for 12 to 16 hours. Cells were harvested by centrifugation and mechanically disrupted in a defined volume of 50 mM Tris-HCl pH7.5 using glass beads. The protein extract was kept on ice until the assay started. The in vitro assay was carried out in a total volume of 50 μl including 50 mM Tris-HCl pH7.5, 5 mM MgCl2 and varying concentrations of CMP-Neu5Ac (0.05-30 mM) as well as of lactose or LNT (0.1-50 mM). The assay started with the addition of 35 to 750 μg protein extract. After 1 to 10 minutes of incubation at 30° C., the assay was inactivated at 95° C. for 5 minutes. Product formation was determined by mass spectrometry. Data were evaluated using the enzyme kinetic module of SigmaPlot v12.5 to calculate Km and Vmax.
(§2) Their kinetic parameters for CMP-Neu5Ac and LNT as well as lactose are depicted in Table 6.

[4] = In vitro kinetics (Km, Vmax), acceptor substrate lactose; type: biochemical; conditions: 30° C., pH7.5, protein extract
Description: as §1, §2

[5] = In vitro kinetics (Km, Vmax), acceptor substrate LNT; type: biochemical; conditions: 30° C., pH7.5, protein extract
Description: as §1, §2

B1: SiaT18: sialyltransferase of Photobacterium leiognathi JT-SHIZ-119, acc. AB500947, SEQ ID NO: 28 (protein, listed as Photobacterium leiognathi)
chain: MCNDNQNTVDVVVSTVNDNVIENNTYQVKPIDTPTTFDSYSWIQTCGTPILKDDEKYSLSFDFVAPELDQDEKFCFEFTGDVDGKRYVTQTNLTVVAPTLEVYVDHASLPSLQQLMKIIQQKNEYSQNERFISWGRIGLTEDNAEKLNAHIYPLAGNNTSQELVDAVIDYADSKNRLNLELNTNTAHSFPNLAPILRIISSKSNILISNINLYDDGSAEYVNLYNWKDTEDKSVKLSDSFLVLKDYFNGISSEKPSGIYGRYNWHQLYNTSYYFLRKDYLTVEPQLHDLREYLGGSLKQMSWDGFSQLSKGDKELFLNIVGFDQEKLQQEYQQSELPNFVFTGTTTWAGGETKEYYAQQQVNVVNNAINETSPYYLGREHDLFFKGHPRGGIINDIILGSFNNMIDIPAKVSFEVLMMTGMLPDTVGGIASSLYFSIPAEKVSFIVFTSSDTITDREDALKSPLVQVMMTLGIVKEKDVLFWSDLPDCSSGVCIAQY
- Relative efficacy of sialyltransferases regarding in-vitro production of sialyllacto-N-tetraoses: LST-b ([1]; 5 mM LNT, 10 mM CMP-Neu5Ac, 16 hours, LC-MS/MS, relative quantity, n.d.: not detectable): 303
- Ranking in the screening for sialylation of LNT ([1]; in words): sialylate LNT most efficiently among the tested α-2,6-sialyltransferases
- Production of sialyllactose in-vivo [2]: 6′-SL
- Km [3]: 2.8 mM
- Vmax CMP-Neu5Ac [3]: 0.21 µmol/min
- Km [4]: 7.6 mM
- Vmax Lactose [4]: 0.21 µmol/min
- Km [5]: 5.2 mM
- Vmax LNT [5]: 0.14 µmol/min
